Positions count from the first letter of the chain named. Numbers in names are those of the source. Where “and” joins values, the source holds several entries; their conditions need not be identical. Equal values may be shown once.
Legend:
[1] = molecular target: T1, human Fn14 (full length) on cells (human, UniProt Q9NP84 28-129); assay: cell-based or functional assay
T1 sequence: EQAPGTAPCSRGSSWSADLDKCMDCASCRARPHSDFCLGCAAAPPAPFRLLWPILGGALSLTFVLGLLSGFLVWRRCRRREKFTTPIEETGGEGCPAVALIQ

[2] = molecular target: T2, human Fn14 Subdomain 2 peptide (AA51-70), biotinylated (human, added C-terminal Lys carries Ahx-biotin; C-terminal amide); assay: biolayer interferometry (ForteBio Octet); biotinylated peptide on streptavidin biosensor, response at 120 s of association
T2 peptide: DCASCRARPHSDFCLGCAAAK
Experimental: (§1) A ForteBio Octet Qke instrument (ForteBio) was used to measure the ability of purified antibodies to bind Fn14 peptides. The assays were performed at 30° C. in 96-well half area plates (Grenier, cat# 675076), with agitation set to 1000 rpm, in kinetic buffer (provided in the assay kit) to minimize nonspecific interactions. Biosensor tips were equilibrated in kinetic buffer for 600 s prior to use. Soluble biotinylated peptides (20 μg/ml, Subdomain 1 (AA30-50): […]-[K-Ahx-biotin]-amide (SEQ ID NO: 182) and Subdomain 2 (AA51-70): […]-[K-Ahx-biotin]-amide (SEQ ID NO: 183) synthesized by 21′ Century Biochemicals) in kinetic buffer were immobilized on streptavidin-coated biosensors (ForteBio, cat# 18-5020) for 300 seconds. […] Purified antibodies (20 μg/m1) were allowed to bind the immobilized peptides. Association was measured for 300 seconds, using the high sensitivity kinetics setting. To characterize the binding properties of the antibody candidates, the response (nm) at t =120 seconds from the start of the association step was recorded. All values were compared to a control sample (isotype antibody).

[3] = molecular target: T3, human Fn14 Subdomain 1 peptide (AA30-50), biotinylated (human, added C-terminal Lys carries Ahx-biotin; C-terminal amide); assay: biolayer interferometry (ForteBio Octet); biotinylated peptide on streptavidin biosensor, antibody in solution, response at 120 s of association
T3 peptide: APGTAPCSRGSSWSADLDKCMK
Experimental: as §1

[4] = molecular target: T4, rat Fn14, endogenous on NRK-52E cells (rat, UniProt Q9CR75 28-129 (mouse entry)); assay: flow cytometry on NRK-52E cells (endogenous rat Fn14), purified antibody 1 µg/mL, detected with anti-mouse IgG PE
T4 construct: Endogenous protein of rat kidney cells; also called NRK52E-A15/Luc cells
Experimental: Primary antibodies were used at a concentration of 1 μg/mL and binding was detected using anti-mouse IgG PE.
(§2) Specifically, the binding activity of hybridoma culture supernatants or purified antibodies to Fn14-expressing cells was evaluated by flow cytometry (FCM). The cell lines evaluated by FCM were Fn14-transfected human embryonic kidney 293F cells (ThermoFisher, cat# R79007) and two cell lines endogenously expressing Fn14, human kidney-derived HK2 cells (ATCC, cat# CRL-2190) and rat kidney-derived NRK-52E cells (Japanese Collection of Research Bioresources Cell Bank (JCRB), cat# IF050480). For FCM analysis, Fn14-expressing cells were harvested using 0.25% trypsin-EDTA (Nacalai Tesque), washed with PBS, and resuspended in SM (Staining Medium: PBS containing 2% FBS, 1 mM EDTA, 0.05% sodium azide). Cells were then seeded in a 96-well plate at 1 ×10⁵ cells per well. Hybridoma supernatant or purified antibody (1 μg/mL final concentration) was added and the cells were incubated at 4° C. for 60 minutes. Cells were then washed with SM, resuspended in goat F(ab′)2 anti-mouse IgG-PE (Southern Biotech Inc.), diluted 1:500 in SM and incubated at 4° C. for 60 minutes. Cells were washed with SM and finally resuspended in 50 μL of SM. Fluorescence intensity was measured by FCM (BD Biosciences, FACS CantoII) and the data were analyzed using FlowJo software (Tomy Digital Biology Co., Ltd.).

[5] = molecular target: T5, mouse Fn14 (full length) on transfected 293F cells (mouse, UniProt Q9CR75 28-129); assay: flow cytometry, hybridoma supernatant on 293F cells transfected with mouse Fn14, detected with anti-mouse IgG PE
T5 sequence: T1 sequence with A7S, R11S, R29P, P47H, T62V, F63L, G66A, L68V, G70S, A97G
Experimental: FIG. 1 depicts binding of anti-Fn14 hybridoma supernatants to human and mouse Fn14 transfected cells. […] Hybridoma supernatant binding was detected using anti-mouse IgG PE.
as §2, with “Cells were washed with SM and finally resuspended in 50 μL of SM.” left out

[6] = molecular target: T6, His-SUMO-huFn14 (soluble human Fn14 aa 28-75 with N-terminal 6xHis-SUMO tag) (human); assay: SPR single-cycle kinetics; mAb captured by anti-human Fc, His-Sumo-Fn14 analyte; average of three runs
T6 construct: also called His-SUMO-Fn14; His-SUMO-hFn14
Experimental: (§3) Alternatively, using a method referred to as “single cycle kinetics,” the His-Sumo-Fn14 was injected with increasing concentrations in a single cycle, the surface not being regenerated between injections. Specifically, anti-human Fc specific antibodies were immobilized on a CM5 sensor chip (cat# BR100012, GE Healthcare Life Sciences, Pittsburgh, Pennsylvania) by an amine coupling chemistry. Thereafter, humanized anti-Fn14 antibodies were captured at approximately 200 RUs, followed by injections of increasing concentrations of recombinant human His-Sumo-Fn14 protein. The association time was 120 seconds, and the final dissociation time was 900 seconds. At the end of the analyte injections, the surface was regenerated with 3M MgCl₂ for 30s. The raw data were double referenced by subtraction of the signals from a reference flow cell without immobilized ligand and a buffer blank. The sensorgram corresponding to each concentration was obtained (see FIG. 6B).

[7] = molecular target: T1, human Fn14 (full length) on cells; assay: flow cytometry blocking assay on HRMC: antibody for 30 min, then recombinant human TWEAK at 250 ng/mL for 45 min; bound TWEAK detected with biotinylated goat anti-human TWEAK and streptavidin-PE; blocked ligand: TWEAK
Experimental: FIG. 25 depicts that humanized anti-Fn14 antibodies blocked TWEAK binding to Fn14 expressed on cells. HRMC were incubated with individual antibodies at various concentrations for 30 minutes followed by incubation with recombinant human TWEAK (250 ng/mL) for 45 minutes. Binding of TWEAK to HRMC cells was detected with biotinylated goat-anti-human TWEAK followed by streptavidin-PE. Stained cells were acquired on a Fortessa. % TWEAK blocking was calculated using the following formula: 100-(Geometric mean fluorescence intensity of sample—Geometric mean fluorescence intensity of cells without TWEAK)/(Geometric mean fluorescence intensity-TWEAK alone with no antibody—Geometric mean fluorescence intensity of cells without TWEAK)*100.
HRMC cells were incubated with individual antibodies at various concentrations (0.015625-1 ng/mL) for 30 minutes at room temperature. Recombinant human TWEAK (R&D Systems, Cat# 1090-TW/CF) was then added to the cells and incubated for 45 minutes at room temperature. Binding of TWEAK to HRMC cells was detected with a biotinylated goat-anti-human TWEAK (R&D Systems, Cat# BAF1090) followed by streptavidin-PE (Biolegend, Cat# 405204). Stained cells were acquired on a Fortessa. % TWEAK blocking was calculated using the following formula: 100-(Geometric mean fluorescence intensity of sample—Geometric mean fluorescence intensity of cells without TWEAK)/(Geometric mean fluorescence intensity—TWEAK alone with no antibody—Geometric mean fluorescence intensity of cells without TWEAK)*100.

[8] = molecular target: T6, His-SUMO-huFn14 (soluble human Fn14 aa …); assay: SPR single-cycle kinetics; mAb captured by anti-human Fc, His-Sumo-Fn14 analyte; 1:1 fit
Experimental: as §3

[9] = molecular target: T7, untagged human Fn14 extracellular domain (aa 28-75), SUMO-cleaved (human, UniProt Q9NP84 28-75); assay: co-crystal structure
T7 construct: Electron density seen for residues 32-68; also called Fn14 (crystallization)
Experimental: Purified Fn14 and His-tagged 41c Fab or R35B9 Fab proteins were mixed in a 1:1 stoichiometric ratio, concentrated to 1 mg/mL and then subjected to crystallization. Initial crystallization trials were performed in a 96-well format using a nano-liter dispensing liquid handling robot (Phoenix, Art Robbins Ltd.) while mixing 0.15 μL protein with 0.15 μL precipitant from different commercially available crystallization screens (JCSG core+and JCSG core 1 screens). Over 200 crystallization conditions were tested using the sitting drop vapor diffusion method and crystallization trails were carried out at both 4° C. and 22° C. Optimization of all crystallization conditions was performed manually by both hanging drop and sitting drop methods. Crystals were obtained in various conditions containing PEG 3350 or PEG 6000 as the common precipitant and were grown over 3 days. […]
The structure had good geometry with 4 residues (0.89%) as outliers and 97.6% residues in favored region of the Ramachandran plot. Correspondingly, the structure of Fn14 -R35B9-His Fab complex was determined by molecular replacement using the phase information obtained from Fn14-41c-His Fab complex and the structure was refined to 2.3 Å with residual factors R/Rfree=20.9/23.3.

T6 sequence (chain, as listed by the source limits assumed): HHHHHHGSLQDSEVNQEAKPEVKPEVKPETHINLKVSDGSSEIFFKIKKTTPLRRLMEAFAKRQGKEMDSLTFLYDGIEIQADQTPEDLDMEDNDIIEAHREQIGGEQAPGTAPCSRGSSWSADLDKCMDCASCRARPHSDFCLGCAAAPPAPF
T4 sequence (Q9CR75 other isoform, or with tags, fused parts or gaps limits assumed): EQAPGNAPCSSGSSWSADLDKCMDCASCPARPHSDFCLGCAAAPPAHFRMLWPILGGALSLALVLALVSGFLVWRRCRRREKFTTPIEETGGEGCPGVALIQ

B1: 41c recombinant mouse IgG1(D265A), kappa antibody (A291/A290) (antibody, V domains shown)
VH: EVQLQQSGPELVKPGASVKMSCKASGYTFTDYNMHWVKQSHGKSLEWIGYINPNNGGTNYNQKFKGKATLTVNKSSRSAYMEFRSLTSEDSAVYYCASSGWFTYWGQGTLVTVSA
VL: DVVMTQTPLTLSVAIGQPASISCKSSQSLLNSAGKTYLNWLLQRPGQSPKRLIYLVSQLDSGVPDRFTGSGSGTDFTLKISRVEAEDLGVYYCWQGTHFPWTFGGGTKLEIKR
ICAM-1 MFI on HRMC, 250 ng/mL rhTWEAK, mAb 0.1 µg/mL [1]: 13100 MFI
binding result [2]: no binding (tested: 20 µg/mL)
binding result [3]: binds

B2: R35B9 mouse IgG1(D265A), kappa antibody (A402/A403) (antibody)
heavy: EVQLQQSGPELVKPGASVKMSCKASGYIFQDYNMHWVKQSHGKSLEWIGSINPRNGWTNYNQKFKGKATLTVNKSSRSAYMEFRSLTSEDSAVYYCASSGWFTYWGQGTLVTVSAAKTTPPSVYPLAPGSAAQTNSMVTLGCLVKGYFPEPVTVTWNSGSLSSGVHTFPAVLESDLYTLSSSVTVPSSPRPSETVTCNVAHPASSTKVDKKIVPRDCGCKPCICTVPEVSSVFIFPPKPKDVLTITLTPKVTCVVVAISKDDPEVQFSWFVDDVEVHTAQTQPREEQFNSTFRSVSELPIMHQDWLNGKEFKCRVNSAAFPAPIEKTISKTKGRPKAPQVYTIPPPKEQMAKDKVSLTCMITDFFPEDITVEWQWNGQPAENYKNTQPIMNTNGSYFVYSKLNVQKSNWEAGNTFTCSVLHEGLHNHHTEKSLSHSPGK
light: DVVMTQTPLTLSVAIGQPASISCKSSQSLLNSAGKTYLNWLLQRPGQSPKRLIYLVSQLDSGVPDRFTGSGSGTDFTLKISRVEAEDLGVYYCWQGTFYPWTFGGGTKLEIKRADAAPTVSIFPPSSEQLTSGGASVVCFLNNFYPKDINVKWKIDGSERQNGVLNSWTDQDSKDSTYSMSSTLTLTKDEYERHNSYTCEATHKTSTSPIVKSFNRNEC
ICAM-1 MFI on HRMC, 250 ng/mL rhTWEAK, mAb 0.1 µg/mL [1]: 5830 MFI
binding result [2]: no binding (tested: 20 µg/mL)
binding result [3]: binds

B3: KO41c mouse monoclonal antibody (hybridoma-derived) (antibody, V domains shown)
VH: B1 VH
VL: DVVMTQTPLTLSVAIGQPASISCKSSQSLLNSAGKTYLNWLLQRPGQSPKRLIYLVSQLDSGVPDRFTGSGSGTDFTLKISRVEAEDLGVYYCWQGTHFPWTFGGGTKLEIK
notes: Hybridoma supernatant or purified antibody from an Fn14 knockout mouse; native mouse IgG, kappa
binding result [4]: binds
binding result [5]: binds

B4: A512/A468 humanized IgG4 Nullbody, kappa antibody (antibody, V domains shown)
VH: QVQLVQSGPEVVKPGASVKVSCKASGYIFQDYNMHWVRQAHGQSLEWMGSINPRNAWTNYNQKFKGRATITVDKSTRTAYMELSSLRSEDTAVYYCASSGWFTYWGQGTLVTVSS
VL: DVVMTQSPLSLPVTLGQPASISCKSSQSLLNSAGKTYLNWLQQRPGQSPRRLIYLVSQLDSGVPDRFSGSGSGTDFTLKISRVEAEDVGVYYCWQGTFYPWTFGGGTKVEIKR
notes: Human IgG4null constant (S228P, L235E, R409K); also called hzR35B9(A56)-HV11 / hzR35B9-LV1a
Kd [6]: 0.206 nM
IC50 (read off the curve) [7]: ~0.3 µg/mL
Kd [8]: 0.226 nM and 0.194 nM and 0.197 nM
koff [8]: 0.000679 s⁻¹ and 0.000664 s⁻¹ and 0.000652 s⁻¹
kon [8]: 3e+06 M⁻¹ s⁻¹ and 3.43e+06 M⁻¹ s⁻¹ and 3.31e+06 M⁻¹ s⁻¹

B5: A515/A518 humanized IgG4 Nullbody, kappa antibody (antibody, V domains shown)
VH: B4 VH with P9A, S44G, S50Y, W57G, A68V, V72A
VL: B4 VL with F98H
notes: also called hzR35B9(Y50A56G57)-HV7b / hzR35B9(H98)-LV1a
Kd [6]: 0.47 nM
binding result [7]: binds
Kd [8]: 0.461 nM and 0.473 nM and 0.477 nM
koff [8]: 0.00144 s⁻¹ and 0.00154 s⁻¹ and 0.0015 s⁻¹
kon [8]: 3.2e+06 M⁻¹ s⁻¹ (2×) and 3.1e+06 M⁻¹ s⁻¹

B6: A553/A472 humanized IgG4 Nullbody, kappa antibody (antibody, V domains shown)
VH: B4 VH with P9A, V12K, R38K, H41P, S44G, M48I, R67K, V72A, K74T, R77S
VL: B4 VL with L15I, Q42L, R50K
notes: also called hzR35B9(A56)-HV7c / hzR35B9-LV4
Kd [6]: 0.358 nM
binding result [7]: binds
Kd [8]: 0.374 nM and 0.347 nM and 0.353 nM
koff [8]: 0.000804 s⁻¹ and 0.000812 s⁻¹ and 0.000799 s⁻¹
kon [8]: 2.2e+06 M⁻¹ s⁻¹ and 2.3e+06 M⁻¹ s⁻¹ (2×)

B7: chimeric R35B9 (antibody, human IgG4 S228P, kappa)
heavy chain: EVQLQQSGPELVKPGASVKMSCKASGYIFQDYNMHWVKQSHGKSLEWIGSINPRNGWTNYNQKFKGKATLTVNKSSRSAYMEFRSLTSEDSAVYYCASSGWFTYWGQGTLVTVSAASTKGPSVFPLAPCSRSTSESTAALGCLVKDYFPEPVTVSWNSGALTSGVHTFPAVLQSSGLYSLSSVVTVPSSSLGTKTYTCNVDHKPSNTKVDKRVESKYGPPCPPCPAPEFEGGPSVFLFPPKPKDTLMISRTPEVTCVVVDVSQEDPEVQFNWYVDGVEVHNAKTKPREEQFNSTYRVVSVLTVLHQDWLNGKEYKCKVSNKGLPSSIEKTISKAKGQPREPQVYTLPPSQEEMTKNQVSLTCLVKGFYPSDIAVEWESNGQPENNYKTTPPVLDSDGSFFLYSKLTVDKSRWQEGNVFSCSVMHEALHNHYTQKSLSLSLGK
light chain: DVVMTQTPLTLSVAIGQPASISCKSSQSLLNSAGKTYLNWLLQRPGQSPKRLIYLVSQLDSGVPDRFTGSGSGTDFTLKISRVEAEDLGVYYCWQGTFYPWTFGGGTKLEIKRTVAAPSVFIFPPSDEQLKSGTASVVCLLNNFYPREAKVQWKVDNALQSGNSQESVTEQDSKDSTYSLSSTLTLSKADYEKHKVYACEVTHQGLSSPVTKSFNRGEC
notes: It may be the same molecule as m27, R35B9 (A451/A452), but neither the sheet nor the text says so; also called mouse-human chimeric R35B9
IC50 (read off the curve) [7]: ~0.2 µg/mL

B8: 41c-His Fab (recombinant, bacterial, for crystallization) (Fab, V domains shown)
VH: B1 VH
VL: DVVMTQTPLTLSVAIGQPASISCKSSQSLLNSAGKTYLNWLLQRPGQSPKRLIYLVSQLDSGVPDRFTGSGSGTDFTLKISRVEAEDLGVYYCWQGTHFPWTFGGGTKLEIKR
notes: Two extra N-terminal residues on each chain (Leu-Glu heavy, Ser-Arg light); C-terminal linker and 6xHis on the heavy chain; also called His-tagged 41c Fab
binding result [9]: binds

B9: R35B9-His Fab (recombinant, bacterial, for crystallization) (Fab, V domains shown)
VH: B1 VH with T28I, T30Q, Y50S, N54R, G57W
VL: not shown
notes: also called R35B9 Fab-His
binding result [9]: binds

Reference: US20220289857A1 (Kyowa Kirin, published 2022)
